Data published in US20150098900A1 (Genentech, published 2015).

Key:
[1] = target: T1, human FcRH2 with N-terminal gD-expression tag on SVT2 cells (human, UniProt Q96LA5 20-508); experiment: FACS, SVT2 cells with gD-tagged FcRH2, subclone supernatants, anti-mouse PE
T1 construct: whole, on cells; also called SVT2/FcRH2
T1 sequence (looked up): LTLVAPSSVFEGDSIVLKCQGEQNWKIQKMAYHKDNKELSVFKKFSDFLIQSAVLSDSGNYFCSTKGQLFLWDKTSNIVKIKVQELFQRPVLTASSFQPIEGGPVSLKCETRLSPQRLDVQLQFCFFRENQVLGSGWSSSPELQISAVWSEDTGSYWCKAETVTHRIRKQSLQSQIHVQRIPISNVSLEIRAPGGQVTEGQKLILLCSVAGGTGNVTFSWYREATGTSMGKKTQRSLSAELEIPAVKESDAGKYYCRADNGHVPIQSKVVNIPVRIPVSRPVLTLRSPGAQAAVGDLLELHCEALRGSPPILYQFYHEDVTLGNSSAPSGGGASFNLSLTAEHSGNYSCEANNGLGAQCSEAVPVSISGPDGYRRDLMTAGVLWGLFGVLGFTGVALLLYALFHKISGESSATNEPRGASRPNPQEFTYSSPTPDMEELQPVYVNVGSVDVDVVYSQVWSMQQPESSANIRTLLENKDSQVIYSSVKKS
Text: Fc receptor homolog (FcRH) family molecules have a high degree of homology to one another (Miller et al., 2002). The homology is especially high between the membrane proximal domains, which the E11 antibodies target (Miller et al., 2002). To investigate the cross reactivity to family members, FcRH1, FcRH2, FcRH3 and FcRH4 (all including an N-terminal gD-expression tag) were expressed in SVT2 cells and cells were stained with subclone supernatants and goat anti-mouse-PE secondary antibody. Expression of the transfected FcRH was confirmed by a signal from anti-gD antibody in all cell lines. […] Overall, the signals from FcRH3-expressing SVT2 cells were low, including the gD control antibody, indicative of low expression level. Low level of binding to FcRH3-expressing SVT2 cells was detected for 1F4 and 4H8 supernatants (FIG. 6C).

[2] = target: T2, human FcRH5c (full length human FcRH5) (human, UniProt Q96RD9 16-977); experiment: FACS, APC-labelled antibodies on SVT2 cells with full-length human FcRH5
T2 construct: Used on transfected SVT2, 293, EJM and OPM2 cells and endogenously on MOLP-2 cells and CD19+ B cells; also called IRTA2c; huFcRH5
T2 sequence: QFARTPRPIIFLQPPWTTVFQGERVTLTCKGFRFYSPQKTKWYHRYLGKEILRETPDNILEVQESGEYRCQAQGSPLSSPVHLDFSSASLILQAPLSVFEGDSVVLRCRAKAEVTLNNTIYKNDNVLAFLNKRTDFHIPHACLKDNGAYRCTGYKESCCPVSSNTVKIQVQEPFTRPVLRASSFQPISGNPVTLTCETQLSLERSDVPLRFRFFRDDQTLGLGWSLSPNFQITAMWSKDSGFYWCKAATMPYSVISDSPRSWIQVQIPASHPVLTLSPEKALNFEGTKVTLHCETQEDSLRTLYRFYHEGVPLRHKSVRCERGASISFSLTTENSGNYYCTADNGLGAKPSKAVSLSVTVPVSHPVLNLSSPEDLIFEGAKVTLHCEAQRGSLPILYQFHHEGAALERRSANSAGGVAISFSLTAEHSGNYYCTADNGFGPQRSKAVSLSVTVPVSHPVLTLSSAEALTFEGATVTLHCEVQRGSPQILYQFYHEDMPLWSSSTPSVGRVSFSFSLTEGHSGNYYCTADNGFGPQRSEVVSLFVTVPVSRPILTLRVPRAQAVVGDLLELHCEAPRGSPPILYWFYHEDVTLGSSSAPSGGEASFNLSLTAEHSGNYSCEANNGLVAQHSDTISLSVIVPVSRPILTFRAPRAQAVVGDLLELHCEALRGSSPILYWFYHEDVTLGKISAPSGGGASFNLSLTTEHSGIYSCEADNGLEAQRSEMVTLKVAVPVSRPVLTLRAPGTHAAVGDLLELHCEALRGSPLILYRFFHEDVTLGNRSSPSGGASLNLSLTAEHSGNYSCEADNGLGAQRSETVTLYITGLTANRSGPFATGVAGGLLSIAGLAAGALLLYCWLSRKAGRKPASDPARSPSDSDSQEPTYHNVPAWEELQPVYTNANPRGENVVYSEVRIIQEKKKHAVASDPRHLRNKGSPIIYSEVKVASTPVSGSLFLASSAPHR

B1: 3B12.1.1 (antibody, IgG2b, V domains shown)
VH: EVQLQQSGPELVKPGASVKISCKTSGYTFTEYTIHWVKQSHGKSLERIGGINPNNDAVSYNQRFRGKATLTVDKSSSTAYMELRSLTSEDSAVYYCAKLGRGYYFDYWGQGTTLTVSSASTKGPSVFPLAP
VL: DIQMTQSPASLSASVGETVTITCRASENIYSNLAWYQLKQGKSPQLLVYGAANLAEGVPSRISGSGSGTQYSLKINSLQSEDFGTYYCQHFWGIPWTFGGGTKLEIKRTVAA
notes: parent 3B12 and subclone 3B12.1 treated as the same antibody; also called 3B12.1.mIgG2b
[1]
  binding result: no binding
[2]
  binding result: binds
